Publication doi:10.1101/808618 (bioRxiv, 2020)

Target: the molecule itself
Test: SEC

| Protein | binding result |
| --- | --- |
| Plasmodium falciparum GMP synthetase wildtype (enzyme) MEGEEYDKILVLNFGSQYFHLIVKRLNNIKIFSETKDYGVELKDIKDMNIKGVILSGGPYSVTEAGSPHLKKEVFEYFLEKKIPIFGICYGMQEIAVQMNGEVKKSKTSEYGCTDVNILRNDNINNITYCRNFGDSSSAMDLYSNYKLMNETCCLFENIKSDITTVWMNHNDEVTKIPENFYLVSSSENCLICSIYNKEYNIYGVQYHPEVYESLDGELMFYNFAYNICKCKKQFDPIRYHELELKNIEKYKHDHYVIAAMSGGIDSTVAAAYTHKIFKERFFGIFIDNGLLRKNEAENVYTFLKSTFPDMNITKIDASENFLSNLQGVTDPEQKRKIIGKLFIEEFEKAVNNIDIDINKTFLLQGTLYPDIIESKCSKNLSDTIKTHHNVGGLPKNLKFKLFEPFKYLFKDDVKTLSRELNLPEEITNRHPFPGPGLAIRVIGEINKHKLNILREVDDIFINDLKQYGLYNQISQAFAVLLSSKSVGVRGDARSYDYVCVLRAVKTSSFMTANWYQIPYDILDKITTRILSEVKGVNRILYDVSSKPPATIEFE | binds |
| PfGMPS E553L (enzyme, Plasmodium falciparum) MEGEEYDKILVLNFGSQYFHLIVKRLNNIKIFSETKDYGVELKDIKDMNIKGVILSGGPYSVTEAGSPHLKKEVFEYFLEKKIPIFGICYGMQEIAVQMNGEVKKSKTSEYGCTDVNILRNDNINNITYCRNFGDSSSAMDLYSNYKLMNETCCLFENIKSDITTVWMNHNDEVTKIPENFYLVSSSENCLICSIYNKEYNIYGVQYHPEVYESLDGELMFYNFAYNICKCKKQFDPIRYHELELKNIEKYKHDHYVIAAMSGGIDSTVAAAYTHKIFKERFFGIFIDNGLLRKNEAENVYTFLKSTFPDMNITKIDASENFLSNLQGVTDPEQKRKIIGKLFIEEFEKAVNNIDIDINKTFLLQGTLYPDIIESKCSKNLSDTIKTHHNVGGLPKNLKFKLFEPFKYLFKDDVKTLSRELNLPEEITNRHPFPGPGLAIRVIGEINKHKLNILREVDDIFINDLKQYGLYNQISQAFAVLLSSKSVGVRGDARSYDYVCVLRAVKTSSFMTANWYQIPYDILDKITTRILSEVKGVNRILYDVSSKPPATILFE | binds |
| PfGMPS_N390A (enzyme, Plasmodium falciparum) MEGEEYDKILVLNFGSQYFHLIVKRLNNIKIFSETKDYGVELKDIKDMNIKGVILSGGPYSVTEAGSPHLKKEVFEYFLEKKIPIFGICYGMQEIAVQMNGEVKKSKTSEYGCTDVNILRNDNINNITYCRNFGDSSSAMDLYSNYKLMNETCCLFENIKSDITTVWMNHNDEVTKIPENFYLVSSSENCLICSIYNKEYNIYGVQYHPEVYESLDGELMFYNFAYNICKCKKQFDPIRYHELELKNIEKYKHDHYVIAAMSGGIDSTVAAAYTHKIFKERFFGIFIDNGLLRKNEAENVYTFLKSTFPDMNITKIDASENFLSNLQGVTDPEQKRKIIGKLFIEEFEKAVNNIDIDINKTFLLQGTLYPDIIESKCSKNLSDTIKTHHAVGGLPKNLKFKLFEPFKYLFKDDVKTLSRELNLPEEITNRHPFPGPGLAIRVIGEINKHKLNILREVDDIFINDLKQYGLYNQISQAFAVLLSSKSVGVRGDARSYDYVCVLRAVKTSSFMTANWYQIPYDILDKITTRILSEVKGVNRILYDVSSKPPATIEFE | binds |
| PfGMPS_D412A (enzyme, Plasmodium falciparum) MEGEEYDKILVLNFGSQYFHLIVKRLNNIKIFSETKDYGVELKDIKDMNIKGVILSGGPYSVTEAGSPHLKKEVFEYFLEKKIPIFGICYGMQEIAVQMNGEVKKSKTSEYGCTDVNILRNDNINNITYCRNFGDSSSAMDLYSNYKLMNETCCLFENIKSDITTVWMNHNDEVTKIPENFYLVSSSENCLICSIYNKEYNIYGVQYHPEVYESLDGELMFYNFAYNICKCKKQFDPIRYHELELKNIEKYKHDHYVIAAMSGGIDSTVAAAYTHKIFKERFFGIFIDNGLLRKNEAENVYTFLKSTFPDMNITKIDASENFLSNLQGVTDPEQKRKIIGKLFIEEFEKAVNNIDIDINKTFLLQGTLYPDIIESKCSKNLSDTIKTHHNVGGLPKNLKFKLFEPFKYLFKADVKTLSRELNLPEEITNRHPFPGPGLAIRVIGEINKHKLNILREVDDIFINDLKQYGLYNQISQAFAVLLSSKSVGVRGDARSYDYVCVLRAVKTSSFMTANWYQIPYDILDKITTRILSEVKGVNRILYDVSSKPPATIEFE | binds |
| PfGMPS_K411L (enzyme, Plasmodium falciparum) MEGEEYDKILVLNFGSQYFHLIVKRLNNIKIFSETKDYGVELKDIKDMNIKGVILSGGPYSVTEAGSPHLKKEVFEYFLEKKIPIFGICYGMQEIAVQMNGEVKKSKTSEYGCTDVNILRNDNINNITYCRNFGDSSSAMDLYSNYKLMNETCCLFENIKSDITTVWMNHNDEVTKIPENFYLVSSSENCLICSIYNKEYNIYGVQYHPEVYESLDGELMFYNFAYNICKCKKQFDPIRYHELELKNIEKYKHDHYVIAAMSGGIDSTVAAAYTHKIFKERFFGIFIDNGLLRKNEAENVYTFLKSTFPDMNITKIDASENFLSNLQGVTDPEQKRKIIGKLFIEEFEKAVNNIDIDINKTFLLQGTLYPDIIESKCSKNLSDTIKTHHNVGGLPKNLKFKLFEPFKYLFLDDVKTLSRELNLPEEITNRHPFPGPGLAIRVIGEINKHKLNILREVDDIFINDLKQYGLYNQISQAFAVLLSSKSVGVRGDARSYDYVCVLRAVKTSSFMTANWYQIPYDILDKITTRILSEVKGVNRILYDVSSKPPATIEFE | binds |
| PfGMPS H389A (enzyme, Plasmodium falciparum) MEGEEYDKILVLNFGSQYFHLIVKRLNNIKIFSETKDYGVELKDIKDMNIKGVILSGGPYSVTEAGSPHLKKEVFEYFLEKKIPIFGICYGMQEIAVQMNGEVKKSKTSEYGCTDVNILRNDNINNITYCRNFGDSSSAMDLYSNYKLMNETCCLFENIKSDITTVWMNHNDEVTKIPENFYLVSSSENCLICSIYNKEYNIYGVQYHPEVYESLDGELMFYNFAYNICKCKKQFDPIRYHELELKNIEKYKHDHYVIAAMSGGIDSTVAAAYTHKIFKERFFGIFIDNGLLRKNEAENVYTFLKSTFPDMNITKIDASENFLSNLQGVTDPEQKRKIIGKLFIEEFEKAVNNIDIDINKTFLLQGTLYPDIIESKCSKNLSDTIKTHANVGGLPKNLKFKLFEPFKYLFKDDVKTLSRELNLPEEITNRHPFPGPGLAIRVIGEINKHKLNILREVDDIFINDLKQYGLYNQISQAFAVLLSSKSVGVRGDARSYDYVCVLRAVKTSSFMTANWYQIPYDILDKITTRILSEVKGVNRILYDVSSKPPATIEFE | binds |
| PfGMPS D413A (enzyme, Plasmodium falciparum) MEGEEYDKILVLNFGSQYFHLIVKRLNNIKIFSETKDYGVELKDIKDMNIKGVILSGGPYSVTEAGSPHLKKEVFEYFLEKKIPIFGICYGMQEIAVQMNGEVKKSKTSEYGCTDVNILRNDNINNITYCRNFGDSSSAMDLYSNYKLMNETCCLFENIKSDITTVWMNHNDEVTKIPENFYLVSSSENCLICSIYNKEYNIYGVQYHPEVYESLDGELMFYNFAYNICKCKKQFDPIRYHELELKNIEKYKHDHYVIAAMSGGIDSTVAAAYTHKIFKERFFGIFIDNGLLRKNEAENVYTFLKSTFPDMNITKIDASENFLSNLQGVTDPEQKRKIIGKLFIEEFEKAVNNIDIDINKTFLLQGTLYPDIIESKCSKNLSDTIKTHHNVGGLPKNLKFKLFEPFKYLFKDAVKTLSRELNLPEEITNRHPFPGPGLAIRVIGEINKHKLNILREVDDIFINDLKQYGLYNQISQAFAVLLSSKSVGVRGDARSYDYVCVLRAVKTSSFMTANWYQIPYDILDKITTRILSEVKGVNRILYDVSSKPPATIEFE | binds |
| PfGMPS_K415L (enzyme, Plasmodium falciparum) MEGEEYDKILVLNFGSQYFHLIVKRLNNIKIFSETKDYGVELKDIKDMNIKGVILSGGPYSVTEAGSPHLKKEVFEYFLEKKIPIFGICYGMQEIAVQMNGEVKKSKTSEYGCTDVNILRNDNINNITYCRNFGDSSSAMDLYSNYKLMNETCCLFENIKSDITTVWMNHNDEVTKIPENFYLVSSSENCLICSIYNKEYNIYGVQYHPEVYESLDGELMFYNFAYNICKCKKQFDPIRYHELELKNIEKYKHDHYVIAAMSGGIDSTVAAAYTHKIFKERFFGIFIDNGLLRKNEAENVYTFLKSTFPDMNITKIDASENFLSNLQGVTDPEQKRKIIGKLFIEEFEKAVNNIDIDINKTFLLQGTLYPDIIESKCSKNLSDTIKTHHNVGGLPKNLKFKLFEPFKYLFKDDVLTLSRELNLPEEITNRHPFPGPGLAIRVIGEINKHKLNILREVDDIFINDLKQYGLYNQISQAFAVLLSSKSVGVRGDARSYDYVCVLRAVKTSSFMTANWYQIPYDILDKITTRILSEVKGVNRILYDVSSKPPATIEFE | binds |
| PfGMPS K547L (enzyme, Plasmodium falciparum) MEGEEYDKILVLNFGSQYFHLIVKRLNNIKIFSETKDYGVELKDIKDMNIKGVILSGGPYSVTEAGSPHLKKEVFEYFLEKKIPIFGICYGMQEIAVQMNGEVKKSKTSEYGCTDVNILRNDNINNITYCRNFGDSSSAMDLYSNYKLMNETCCLFENIKSDITTVWMNHNDEVTKIPENFYLVSSSENCLICSIYNKEYNIYGVQYHPEVYESLDGELMFYNFAYNICKCKKQFDPIRYHELELKNIEKYKHDHYVIAAMSGGIDSTVAAAYTHKIFKERFFGIFIDNGLLRKNEAENVYTFLKSTFPDMNITKIDASENFLSNLQGVTDPEQKRKIIGKLFIEEFEKAVNNIDIDINKTFLLQGTLYPDIIESKCSKNLSDTIKTHHNVGGLPKNLKFKLFEPFKYLFKDDVKTLSRELNLPEEITNRHPFPGPGLAIRVIGEINKHKLNILREVDDIFINDLKQYGLYNQISQAFAVLLSSKSVGVRGDARSYDYVCVLRAVKTSSFMTANWYQIPYDILDKITTRILSEVKGVNRILYDVSSLPPATIEFE | binds |
| PfGMPS R539L (enzyme, Plasmodium falciparum) MEGEEYDKILVLNFGSQYFHLIVKRLNNIKIFSETKDYGVELKDIKDMNIKGVILSGGPYSVTEAGSPHLKKEVFEYFLEKKIPIFGICYGMQEIAVQMNGEVKKSKTSEYGCTDVNILRNDNINNITYCRNFGDSSSAMDLYSNYKLMNETCCLFENIKSDITTVWMNHNDEVTKIPENFYLVSSSENCLICSIYNKEYNIYGVQYHPEVYESLDGELMFYNFAYNICKCKKQFDPIRYHELELKNIEKYKHDHYVIAAMSGGIDSTVAAAYTHKIFKERFFGIFIDNGLLRKNEAENVYTFLKSTFPDMNITKIDASENFLSNLQGVTDPEQKRKIIGKLFIEEFEKAVNNIDIDINKTFLLQGTLYPDIIESKCSKNLSDTIKTHHNVGGLPKNLKFKLFEPFKYLFKDDVKTLSRELNLPEEITNRHPFPGPGLAIRVIGEINKHKLNILREVDDIFINDLKQYGLYNQISQAFAVLLSSKSVGVRGDARSYDYVCVLRAVKTSSFMTANWYQIPYDILDKITTRILSEVKGVNLILYDVSSKPPATIEFE | binds |
